T1: human CXCR3 (human, UniProt P49682 1-368)
T1 sequence: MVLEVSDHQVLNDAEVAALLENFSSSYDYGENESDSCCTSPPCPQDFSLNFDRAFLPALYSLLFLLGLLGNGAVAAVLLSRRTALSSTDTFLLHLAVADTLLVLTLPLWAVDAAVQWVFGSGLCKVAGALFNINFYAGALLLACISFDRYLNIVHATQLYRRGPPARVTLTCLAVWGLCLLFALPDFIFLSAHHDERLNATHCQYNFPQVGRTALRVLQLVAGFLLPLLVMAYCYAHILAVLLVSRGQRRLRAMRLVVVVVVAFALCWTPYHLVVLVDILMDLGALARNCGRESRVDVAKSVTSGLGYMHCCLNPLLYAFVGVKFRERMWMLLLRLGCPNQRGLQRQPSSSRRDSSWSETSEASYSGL

T2: human CCR1 (human, UniProt P32246 1-355)
T2 construct: whole, on cells
T2 sequence (looked up): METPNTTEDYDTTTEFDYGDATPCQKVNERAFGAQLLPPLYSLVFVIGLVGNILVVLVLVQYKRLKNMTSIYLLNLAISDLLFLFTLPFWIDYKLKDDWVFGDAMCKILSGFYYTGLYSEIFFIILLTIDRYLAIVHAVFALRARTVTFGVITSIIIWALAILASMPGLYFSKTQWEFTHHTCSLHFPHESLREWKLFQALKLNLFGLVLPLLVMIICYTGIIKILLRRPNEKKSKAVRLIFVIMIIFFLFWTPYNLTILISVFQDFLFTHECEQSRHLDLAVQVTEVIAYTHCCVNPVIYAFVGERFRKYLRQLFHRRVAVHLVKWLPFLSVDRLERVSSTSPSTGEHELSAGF

T3: human CCR3 (human, UniProt P51677 1-355)
T3 construct: whole, on cells
T3 sequence (looked up): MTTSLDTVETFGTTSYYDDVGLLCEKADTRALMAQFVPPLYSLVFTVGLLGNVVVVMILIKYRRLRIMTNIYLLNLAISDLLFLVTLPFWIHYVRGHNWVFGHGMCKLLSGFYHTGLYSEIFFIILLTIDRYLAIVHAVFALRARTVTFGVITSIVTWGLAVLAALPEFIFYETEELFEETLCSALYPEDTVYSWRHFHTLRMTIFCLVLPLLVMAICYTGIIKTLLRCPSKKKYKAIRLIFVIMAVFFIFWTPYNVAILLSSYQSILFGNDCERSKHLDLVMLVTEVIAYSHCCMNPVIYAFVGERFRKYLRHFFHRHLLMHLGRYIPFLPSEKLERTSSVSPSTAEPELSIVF

T4: human CXCR2 (human, UniProt P25025 1-360)
T4 construct: whole, on cells
T4 sequence (looked up): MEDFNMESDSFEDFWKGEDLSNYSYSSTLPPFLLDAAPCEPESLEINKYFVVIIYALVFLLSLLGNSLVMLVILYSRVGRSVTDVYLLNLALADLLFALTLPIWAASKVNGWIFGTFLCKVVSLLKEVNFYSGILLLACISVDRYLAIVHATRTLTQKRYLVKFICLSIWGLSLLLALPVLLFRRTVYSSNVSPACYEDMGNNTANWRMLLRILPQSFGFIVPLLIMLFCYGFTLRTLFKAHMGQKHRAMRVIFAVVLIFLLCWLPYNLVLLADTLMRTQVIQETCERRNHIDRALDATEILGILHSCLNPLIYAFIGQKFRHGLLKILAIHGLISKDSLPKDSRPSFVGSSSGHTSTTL

T5: human CXCR1 (human, UniProt P25024 1-350)
T5 construct: whole, on cells
T5 sequence (looked up): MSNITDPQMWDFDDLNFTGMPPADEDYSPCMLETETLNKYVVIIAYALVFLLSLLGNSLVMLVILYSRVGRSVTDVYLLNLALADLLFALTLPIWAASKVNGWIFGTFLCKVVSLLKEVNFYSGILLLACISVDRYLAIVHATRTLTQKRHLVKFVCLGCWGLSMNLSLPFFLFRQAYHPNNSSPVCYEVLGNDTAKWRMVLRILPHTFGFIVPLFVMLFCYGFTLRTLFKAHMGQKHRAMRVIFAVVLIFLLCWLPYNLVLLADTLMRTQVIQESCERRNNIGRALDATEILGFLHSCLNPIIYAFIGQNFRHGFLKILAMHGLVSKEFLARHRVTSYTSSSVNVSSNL

T6: human CCR4 (human, UniProt P51679 1-360)
T6 construct: whole, on cells
T6 sequence (looked up): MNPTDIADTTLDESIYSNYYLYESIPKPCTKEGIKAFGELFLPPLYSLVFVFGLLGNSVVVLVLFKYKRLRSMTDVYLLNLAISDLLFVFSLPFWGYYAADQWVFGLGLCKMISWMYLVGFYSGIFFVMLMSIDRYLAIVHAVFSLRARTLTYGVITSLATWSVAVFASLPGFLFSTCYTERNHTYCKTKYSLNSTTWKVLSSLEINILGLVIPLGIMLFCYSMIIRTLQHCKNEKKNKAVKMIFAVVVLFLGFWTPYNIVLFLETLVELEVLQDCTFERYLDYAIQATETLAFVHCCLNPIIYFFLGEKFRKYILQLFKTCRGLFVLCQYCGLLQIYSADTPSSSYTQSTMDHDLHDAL


Key:
human CXCR3 [1] = biological target: T1, human CXCR3; test: cell-based or functional assay
human CXCR3 [2] = biological target: T1, human CXCR3; test: flow cytometry on CXCR3 L1.2 transfectants, biotinylated antibody, streptavidin-PE; 100% is the fluorescence at 10 µg/ml
Experimental: The strength of human monoclonal antibody 5H7 and human monoclonal antibody 7H5 binding to CXCR3 was measured using CXCR3 transfectants. The mean streptavidin-PE fluorescence detected when 10 μg/ml of each purified mAb was used to stain CXCR3 transfectants was used as 100% fluorescence.

human CCR5 = biological target: T7, human CCR5 (human, UniProt P51681 1-352); test: flow cytometry, hybridoma supernatant on L1.2 transfectants, PE anti-human IgG
T7 construct: whole, on cells
T7 sequence (P51681 whole entry): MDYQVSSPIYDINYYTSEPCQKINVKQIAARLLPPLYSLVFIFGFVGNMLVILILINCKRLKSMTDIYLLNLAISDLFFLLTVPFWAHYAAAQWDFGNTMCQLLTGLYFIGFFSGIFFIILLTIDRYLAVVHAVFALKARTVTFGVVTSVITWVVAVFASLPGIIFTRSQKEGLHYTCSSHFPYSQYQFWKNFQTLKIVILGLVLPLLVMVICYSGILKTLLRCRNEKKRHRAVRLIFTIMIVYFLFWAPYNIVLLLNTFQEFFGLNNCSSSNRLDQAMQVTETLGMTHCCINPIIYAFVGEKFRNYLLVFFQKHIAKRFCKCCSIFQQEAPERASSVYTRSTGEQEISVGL
Experimental: (§1) Three days after the last immunization, five animals were sacrificed, their spleen cells were isolated, combined and used to produce hybridomas by standard methods. About 3×10⁸ spleen cells were fused with 5- to 10-fold fewer SP2/0-Ag14 fusion partner cells (ATCC, No. CRL-1581, Manassas, Va.) or P3X63Ag8.653 fusion partner cells (ATCC, No. CRL-1580, Manassas, Va.), by brief resuspension in polyethylene glycol 1500 (50% in 75 mM HEPES, Boehringer-Mannheim, now Roche Applied Science, Indianapolis, Ind.), to generate the hybridomas. After fusion, the cells were selected by incubation for two weeks in hypoxanthine, aminopterin, thymidine (HAT) medium specificity was assessed by staining CXCR3 transfectants, control L1.2 cells and L1.2 cells that expressed human CCR1, CCR2, CCR3, CCR4, CCR5, CXCR1, CXCR2, or CXCR4 (Qin et al. (1998) J. Clin. Invest. 101:746-54). The binding of antibody from the hybridoma supernatants to receptor transfectants was detected by phycoerythrin-conjugated anti-human IgG with analysis by flow cytometry. Positive wells were those that contained supernatant which stained the CXCR3 transfectants, but not L1.2 cells which expressed the other chemokine receptors tested. Positive wells were subcloned to yield hybridoma cell lines. Hybridoma cultures were maintained in DMEM with 10% fetal calf serum, 10 units/ml interleukin-6, 0.1% L-glutamine, and 0.1% penicillin/streptomycin.

human CCR1 = biological target: T2, human CCR1; test: as above
Experimental: as §1

human CCR3 = biological target: T3, human CCR3; test: as above
Experimental: as §1

human CCR2 = biological target: T8, human CCR2 (human, UniProt P41597 1-374); test: as above
T8 construct: whole, on cells
T8 sequence (P41597 whole entry): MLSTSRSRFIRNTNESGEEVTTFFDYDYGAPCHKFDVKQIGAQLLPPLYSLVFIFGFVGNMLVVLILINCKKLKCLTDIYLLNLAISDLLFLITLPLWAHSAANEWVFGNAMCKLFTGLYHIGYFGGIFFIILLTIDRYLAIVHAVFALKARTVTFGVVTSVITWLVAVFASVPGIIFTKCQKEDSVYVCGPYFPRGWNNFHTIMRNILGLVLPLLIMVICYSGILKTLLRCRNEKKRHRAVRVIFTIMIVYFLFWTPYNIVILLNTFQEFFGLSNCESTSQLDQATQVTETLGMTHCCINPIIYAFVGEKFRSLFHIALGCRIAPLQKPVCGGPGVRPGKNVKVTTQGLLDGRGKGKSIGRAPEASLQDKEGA
Experimental: as §1

human CXCR2 = biological target: T4, human CXCR2; test: as above
Experimental: as §1

human CXCR1 = biological target: T5, human CXCR1; test: as above
Experimental: as §1

human CXCR4 = biological target: T9, human CXCR4 (human, UniProt P61073 1-352); test: as above
T9 construct: whole, on cells
T9 sequence (P61073 whole entry): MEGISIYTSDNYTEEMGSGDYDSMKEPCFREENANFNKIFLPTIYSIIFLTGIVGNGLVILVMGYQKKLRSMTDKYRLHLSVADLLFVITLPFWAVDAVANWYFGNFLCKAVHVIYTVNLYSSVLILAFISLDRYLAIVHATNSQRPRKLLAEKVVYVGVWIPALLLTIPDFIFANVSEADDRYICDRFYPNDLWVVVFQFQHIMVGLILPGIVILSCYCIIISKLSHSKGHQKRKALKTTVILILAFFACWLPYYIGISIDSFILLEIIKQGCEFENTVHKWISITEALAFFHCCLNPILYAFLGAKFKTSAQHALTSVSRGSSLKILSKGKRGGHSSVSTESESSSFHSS
Experimental: as §1

human CCR4 = biological target: T6, human CCR4; test: as above
Experimental: as §1

IC50 of inhibition of chemotaxis of CXCR3 transfectants toward I-TAC (human CXCR3 [1]) | IC50 of inhibition of chemotaxis of CXCR3 transfectants toward IP-10 (human CXCR3 [1]) | IC50 of inhibition of chemotaxis of CXCR3 transfectants toward MIG (human CXCR3 [1]) | EC50 (human CXCR3 [2]) | binding result (human CCR5) | binding result (human CCR1) | binding result (human CCR3) | binding result (human CCR2) | binding result (human CXCR2) | binding result (human CXCR1) | binding result (human CXCR4) | binding result (human CCR4) | Binder
1.2 µg/mL | 0.7 µg/mL | 2.9 µg/mL | 0.5 nM | no binding | no binding | no binding | no binding | no binding | no binding | no binding | no binding | human monoclonal antibody 5H7 (antibody, human IgG2, V domains shown, The hybridoma antibody as tested is human IgG2, kappa; also called human mAb 5H7; antibody of hybridoma LS328-5H7-2-6 (ATCC PTA-5388)) VH: QVQVVQSGAEVKKPGASVKVSCKTSGYTFTGNYIHWVRQAPGQGLEWMGWINPNSGGTNFAQKFQGRVTMTRDTSITTAYMVLSRLRSDDTAVYYCARGGNNMIVVARGYYGMDVWGQGTTVTVSS VL: DIQMTQSPSSLSASVGDRVTITCRASQSIGRYLNWYQQKPGKAPKLLIYGASSLQSGVPSRFSGSGSGTEFTLTISSLQPEDFATYYCQQSFRVPISFGQGTRLEIK
– | – | – | 1.2 nM | no binding | no binding | no binding | no binding | no binding | no binding | no binding | no binding | human monoclonal antibody 7H5 (antibody, human IgG2, V domains shown, The hybridoma antibody as tested is human IgG2, kappa; also called human mAb 7H5; antibody of hybridoma LS329-7H5-2-19-7 (ATCC PTA-5389)) VH: QVQVVQSGAEVKKPGASVKVSCKASGYTFTGYYIHWVRQAPGQGLEWMGWINPDSGGTNYAQKFQGRVTMTRDTSISTAYMVLNRLRSDDTAVYYCAKGGINMIVVARGYYGMDVWGQGTTVTVSS VL: DIQMTQSPSSLSASVGDRVTITCRTSQSIGRYLNWYQQKPGKAPKLLIYGASSLQSGVPSRFSGSGSGTEFTFIISSLQPEDFATYYCQQSFRVPITFGQGTRLEIK

— patent US20050112119A1 (Takeda / Millennium, published 2005)
